Test results: the nanobody polyreactivity screen of Harvey et al. (2022)

Experiment: yeast display, Sf9 membrane polyspecificity reagent, FACS + sequencing; frameworks hold sequencing errors
In short: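 A nanobody's polyreactivity label depends on the gate it was sorted from. Yeast display cells were stained with 10% biotinylated, detergent-solubilized Sf9 membrane reagent for 1 hour at 4 °C, enriched on streptavidin microbeads and sorted by FACS. The low and high (top ~1%) gates were set on anti-HA fluorescence for expression and streptavidin fluorescence for reagent binding.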

Sequence	polyreactivity (PSR sort gate)
QVQLVESGGGLVQAGGSLRLSCAASGLTFGYNAMGWYRQAPGKERELVAAISSNGGRTYYADSVKGRFTISRDNAKNTVYLQMNSLKPEDTAVYYCNVVYSRSRPYDYWGQGTQVTVSS	high polyreactivity
QVQLVESGGGLVQAGGSLRLSCAASGIIFYEYAMGWYRQAPGKERELVAVITSGGTTNYADSVKGRFTISRDNAKNTVYLQMNSLKPEDTAVYYCAADVYWEFSPEYDYWGQGTQVTVSS	low polyreactivity
QVQLVESGGGLVQAGGSLRLSCAASGRIFRFYAMGCYIQAPGKERELVAVITARGGSTYYADSVKGRFTISRDNAKNNVYLQMNSLKPEDTAVYYCASTRVKGYTVVKSRRGEIDYWGQGTQVTVSS	high polyreactivity
QVQLVESGGGLVQAGGSLRLTCAASGSTLIDNVMGWYRQAPGKERELVASITSSDGTTYADSVKGRFTISRDNAKNSVYLQMNSLKPEDTAVYYFAARPWYGTYNYWGEGTQVTVSS	low polyreactivity
QVQLVESGGGLDQAGGSLRLSCAASGRIFRPNAMGWYRQAPGKERELVAAITSGGSTNYADSVKGRFTISRDNAKNTVYLQMNSLKPEDNAVYYCAKGYKYGKNIYYYWGQGTQVTVSS	high polyreactivity
QVQLVESGGGLVQAGGSLRLSCAASGSTFTWNAMGWYRQAPGTERELVAAITSGGRTYYADSVKGRFTISRDNAKNTVYLQMNSLKPEDTAVYYCAAKVRQYYSACNYYYWGQVTQVTVSS	high polyreactivity
QVQLVESGGGLVQAGGSLRLSCAASGFIFDGYAMGWYRPAPGKERELVAAIDSGGDRTYYADSVKGRFTISRDNAKNTVYLQMNSLKPEDTAVYYCAADSSDPTGYDYWGQGTQVTVSS	low polyreactivity
QVQLVESGGGLVQAGGSLRLSCAASGYTLGPYAMGWYRQAPGKERELVATISSAGNTNYADSVKGRFTISRDNAKNTVYLQMNSLKPEDTAVYYCAAAIWYGFGGASGGTYYYWGQGTQVTVSS	high polyreactivity
QVQLVESGGGLVQAGGSLRLSCAASGSIFTRNAMGWYRPAPGKERELVAAIRWNGGRTYYADSVKGRFTISRDNAKNTVYLQMNSLKPEDTAVYYCAADYYQRRYVPEYDYWGQGTQVTVSS	low polyreactivity
QDNLVESGGGLVQAGGSLRLICAASGSTNRSNAMGWYRQAPGKERELVAANSRTGGRTYYADSVKGRFTISRDNAKNTVYLQMKCLNQEDTAVYYCARADKRLEYSENYYWGQGTQVTVSS	high polyreactivity
QVQLVESGGGLVQAGGSLRLSCAASGSTSRYAMGWYRQAPGKERELVAAITRSGGTTYYADSVKGRYTISRDNAKNTVYLQMNSLKPEDTAVYYCATSDRQVKYDYWGQGTQVTVSS	low polyreactivity
QVQLVESGGGLVQAGGSLRLSCAASGSIFTYYAMGWYRQAPGKERELVAAISGSGGRTYYADSVKGRFTISRDNAKNPVYLQMNSLKPEDTAVYYCAVRSYRRFTHLYYRYDYWGQGTQVTVSS	high polyreactivity
QVQLVESGGGLVQAGGSLRLRCAASGRTVVGTTMGWYRQAPGKEREVVAAISSGGRTYYADSVKGRFTISRDNAKNTVYLQMNSLIPVDTAVYYCAARRRGKVVPTSQFDYWGQGTQVTVSS	high polyreactivity
QVQLVESGGGLVQAGGSLRLSCAASGFIFWYYAMGWYRPAPGKERELVATITRGGSTYYADSVKGRFTISRDNAKNTVYLQLNSLKPEDTAVYYCNAVRPKIYDYWGQGTQVTLSS	high polyreactivity
QVQLVESGGGLVQAGGSLRLSCAASGSILYVNAMGWYRQAPGKERELVAVITSGGSTNNADSVKGRFTISRDNAKNTVYLQMNSLKPEDTAVYYCAADPYSVYGGDYWGQGTQVTVSS	low polyreactivity
QVQLVESGGGLVQAGGSLRLSCAASGRTFTGYAMGWDRQAPGKERELVAGISYRGGSTYYADSVKGRFTISRDNAKNTVYLQMNSLKQEVTAVYYCARDYSRHKGDYWGQGTQVTVSS	low polyreactivity

Sequence	polyreactivity (PSR sort gate)
QVQLVESGGGLVQAGGSLRLSCAASGIIFSDYAMGWYRQAPGKERELVAAISRNGGSTYYADSVKGRFTISRDNAKNTVYLHMTSLKPEDTAVYYCAATRRYRYNWGQGTQVSVSS	high polyreactivity
QVQLVESGGGLVQAGGSLRLSCAASGSTIWRNTMGWYRQAPGKERELVADIRNVGSTYYADSVKGLFTISRDNAKNTVYLQMNSLKPEDTAVYYCYARWRFLYDYWGQGTQVTVSS	high polyreactivity
QVQLVESGGGLVQAGGSLRLSCAASGIIFYDYAMGWYRQAPGKERELVAAITSSGGSTYYADSVKGRFTISRDNAKNTVYLQMNSLKPEDTAVYYCAARTRSYWSTTYYYWGQGTQVTVSS	high polyreactivity
QVQLVESGGGLVQAGGSLRLSCAASGYNFGVYAMGWYRQAPRKERELVARITSGGSTNYADSVKGRFTISRDNAKITVYLQMNSLKPEDTAVYYCAAAVGNTDREYDYWGQGTQVTVSS	low polyreactivity
QVQLQESRGGLVQVGGSQRLSCAASGNIFYNYAMGWYRHANGKEREFDATINHGTSINYADSVKGRFTISRDNAKNTLYLQMNSLKPEDTAVSYCAADLSWTDNLFYWGQGTQVTVTS	low polyreactivity
QVQLVESGGGLVQAGGSRRLRCAASGSTFDVYAMGWYRQAPGKESELVAVINTSGTRTYYADSVKGRFTISRDNAKNTVYLQMNSLKPEDTAVYSCNAGGHLEMNYWGQGTQVTVSS	low polyreactivity
QVQLVESGGGLVQAGGSLRLICAASGRTFNINGMGWYRQAPGKERELVAAITTSGGSTYYADSVKGRFTISRDNAKNTVYLQMNSLKPEDTAVYYCAADVFSRKYLYGDYDYWGQGTQVTVSS	high polyreactivity
QVQLVESGGGLVQAGGSLRLSCAASGSIFRVNAMGWYRQAPGKERELVAAITSGGTTTYYADSVKGRFTISLDNAKNTVYLQMNSLKPEDTAVYYCSKYPYPIYHTDGDDWGQGTQVTVSS	low polyreactivity
QVQLVESGGGLVQAGGSLRLSCAASGNISPDYGMGWYRQAPGKERELVAVIRWSDDSTYYADSVKGRFTISRDYAKNSVYLQMNSLKPEDTAVYYCSTDDYDAIDLDYWGQGTQVTVSS	low polyreactivity
QVQLVESGGGLVQAGGSLRLSCAASGSTFFRYAMGWYRQAPGKERELVAAISYSGDSTYYADSVKGRFTISRDNAKNTVDLQMNSLKPEDTAVYYCNAVYFRYRYNYWGQGTQVTVSS	high polyreactivity
QVQLVESGGGLVQAGGSLRLSCAASGFTIPYKAMGWYRHAPGKERELVAAISRSGTRTYYADSVKGRFTISRDNAKNTVYIQMNSLKPEDTAVYYCAKDTIGGASPHYYWGQGTQVTVSS	high polyreactivity
QVQLVESGGGLVQAGGSLRLSCASSGFAYSYYAMGWYRQAPGKEREFVASIDWSGGSTYYADSVKGRITISRDNAMNTVYLQMNSLKPEATAVYYCAAELDYFPGYDSWGQGTQVTVSS	low polyreactivity
QVQLVESGGGLVQAGGSLRLSCAASGSIFGRNAMGWYRQAPGKDRELVAAINSGGSTNYADSVKGRFTISRYNAKNTVYLQMNSLKPEDTAVYYCAARTYSSGRYYGYVAFYYWGQGTQVTVSS	high polyreactivity
QVQLVESGGGLVQAGGSLRLSCAASGIIFFFYDMGWYRQSPGKERELVAAISDDGVSTDYADSVKGRFTISRDNAKNTVYLQMNSLKPEDTAVYYCAAKTERVYPWFSFGYWVQGTQVTVSS	low polyreactivity
QVQLVESGGGLVQAGGSLRLTCAASGRSFRRYAMGWYREAPGKERELVAAITWRGSSTYYADSVKGRFTISRDNAKNTVYLQMNSLKPEDTAVYYCAADIGYTYEYYYWGQGTQVTLSS	high polyreactivity
QVQLVESGGGLVQAGGSLRLSCAASVFYPYAMGWYRQAPGKERELVAAISWSGGRTYYADSVKGRFTISRDNAKNTVYLQMNSLKPEDTAVYYCNKVYSSYRVYDFNYWGQGTQVTVSS	high polyreactivity
